Measured values taken from patent US20150037339A1 (Regeneron, published 2015).

T1: Activin A (human, UniProt P08476 311-426)
T1 sequence: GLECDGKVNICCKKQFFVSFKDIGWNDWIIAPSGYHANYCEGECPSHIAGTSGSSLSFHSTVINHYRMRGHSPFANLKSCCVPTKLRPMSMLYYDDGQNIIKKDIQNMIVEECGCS

T2: Activin B (human, UniProt P09529 293-407)
T2 chain: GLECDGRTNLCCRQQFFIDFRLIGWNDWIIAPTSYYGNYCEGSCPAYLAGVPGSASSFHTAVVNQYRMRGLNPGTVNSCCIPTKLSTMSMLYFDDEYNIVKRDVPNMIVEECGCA

T3: Activin AB (human, UniProt P08476 311-426; P09529 293-407)
T3 chain 1: T1 sequence
T3 chain 2: T2 chain

T4: Activin AC (human, UniProt P55103 237-352)
T4 sequence 1: T1 sequence
T4 sequence 2: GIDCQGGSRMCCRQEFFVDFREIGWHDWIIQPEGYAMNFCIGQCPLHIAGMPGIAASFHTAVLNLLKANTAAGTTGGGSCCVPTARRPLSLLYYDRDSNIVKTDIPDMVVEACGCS

T5: hBMP4 (human, UniProt P12644 293-408)
T5 construct: Bought protein
T5 sequence (looked up): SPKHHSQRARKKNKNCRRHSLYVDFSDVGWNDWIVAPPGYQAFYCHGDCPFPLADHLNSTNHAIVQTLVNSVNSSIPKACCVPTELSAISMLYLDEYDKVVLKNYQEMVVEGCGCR

T6: hBMP6 (human, UniProt P22004 382-513, limits assumed)
T6 construct: Bought protein
T6 sequence (looked up): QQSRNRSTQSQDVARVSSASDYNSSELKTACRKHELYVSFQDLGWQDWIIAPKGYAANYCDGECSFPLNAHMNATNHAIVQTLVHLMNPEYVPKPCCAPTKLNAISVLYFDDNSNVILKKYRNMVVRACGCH

T7: hBMP9 (human, UniProt Q9UK05 320-429)
T7 construct: Bought protein
T7 sequence (looked up): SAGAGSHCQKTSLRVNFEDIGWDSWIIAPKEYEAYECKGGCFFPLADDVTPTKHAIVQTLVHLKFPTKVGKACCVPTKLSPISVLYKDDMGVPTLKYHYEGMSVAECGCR

B1: H4H10440P2 (antibody, human IgG4, V domains shown)
VH: EVQLVESGGGVVQPGGSLRLSCAASTFTFDDFAMHWVRQAPGKGLEWVSLITGDGGSTYYADPVKGRFTISRDNSKNSLYLQMNSLRTEDTALYYCVKDWWIAARPDYYYYGMDVWGQGTTVTVSS
VL: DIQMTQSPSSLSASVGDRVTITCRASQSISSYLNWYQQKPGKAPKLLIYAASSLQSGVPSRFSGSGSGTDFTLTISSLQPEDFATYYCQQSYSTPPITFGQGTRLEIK
B2: H4H10436P2 (antibody, human IgG4, V domains shown)
VH: QVQLVESGGGVVQPGRSLRLTCVASGFTVSSYGMHWVRQAPGKGLEWVAVMFYDESKKYYADSVKGRFTISRDNSKNTLYLQMNSLRVEDTAVYYCARDEQLDFEYWGQGTLVTVSS
VL: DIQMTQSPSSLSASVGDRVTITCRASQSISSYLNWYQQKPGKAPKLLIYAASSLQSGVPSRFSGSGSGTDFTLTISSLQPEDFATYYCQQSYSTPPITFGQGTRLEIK

Columns and labels:
Activin A [1] = target: T1, Activin A; assay: cell-based or functional assay
Activin B [2] = target: T2, Activin B; assay: cell-based or functional assay
Activin AB [3] = target: T3, Activin AB; assay: cell-based or functional assay
Activin AC [4] = target: T4, Activin AC; assay: cell-based or functional assay
Activin AB [5] = target: T3, Activin AB; assay: SPR (Biacore), mAb captured on anti-Fc, Activin AB injected, 25 C
Description: (§1) Antibody-antigen association was monitored for 240 seconds while dissociation in buffer was monitored for 600 seconds. Kinetic association and dissociation rate constants were determined by processing and fitting the data using Scrubber software version 2.0c. Binding equilibrium dissociation constants (KD) and dissociative half-lives (t_{1/2}) were then calculated from the kinetic rate constants as: KD (M)=kd/kₐ and t_{1/2} (min)=[ln 2/(60*kd)]. (NB=no binding observed under the conditions used; NT=not tested).

Activin AB [6] = target: T3, Activin AB; assay: SPR (Biacore), mAb captured on anti-Fc, Activin AB injected, 37 C
Description: as §1

Activin AC [7] = target: T4, Activin AC; assay: SPR (Biacore), mAb captured on anti-Fc, Activin AC injected, 25 C
Description: as §1

Activin AC [8] = target: T4, Activin AC; assay: SPR (Biacore), mAb captured on anti-Fc, Activin AC injected, 37 C
Description: as §1

Activin A [9] = target: T1, Activin A; assay: SPR (Biacore 4000), captured on anti-human Fc, 200 nM ligand injected, 37 C
Description: (§2) For the binding experiment, a Biacore 4000 instrument was used. […] All Biacore binding studies were performed in HBS-T running buffer (0.01 M HEPES pH 7.4, 0.5 M NaCl, 3 mM EDTA, 0.5 mg/ml bovine serum albumin, 0.05% v/v Surfactant P20). […] All binding measurements were performed at 37° C. […] Over the captured antibody surface was injected the TGF-beta family ligands through concentrations ranging from 3.1 nM to 200 nM.

Activin B [10] = target: T2, Activin B; assay: as above
Description: as §2

Activin AB [11] = target: T3, Activin AB; assay: as above
Description: as §2

Activin AC [12] = target: T4, Activin AC; assay: as above
Description: as §2

hBMP2 = target: T8, hBMP2 (human, UniProt P12643 283-396); assay: as above
T8 construct: Bought protein; also called BPM2
Description: as §2

hBMP4 = target: T5, hBMP4; assay: as above
Description: as §2

hBMP6 = target: T6, hBMP6; assay: as above
Description: as §2

hBMP9 = target: T7, hBMP9; assay: as above
Description: as §2

GDF8 = target: T9, GDF8 (human, UniProt O14793 267-375); assay: as above
T9 construct: Bought (R&D Systems #788-G8); also called hGDF8; growth and differentiation factor-8
Description: as §2

GDF11 = target: T10, GDF11 (human, UniProt O95390 299-407); assay: as above
T10 construct: Bought protein; also called hGDF11
Description: as §2

T10 sequence (O95390 299-407 limits assumed): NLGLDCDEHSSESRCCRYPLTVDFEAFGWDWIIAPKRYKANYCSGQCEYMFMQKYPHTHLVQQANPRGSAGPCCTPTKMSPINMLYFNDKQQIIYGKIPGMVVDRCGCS
T8 sequence (P12643 283-396 limits assumed): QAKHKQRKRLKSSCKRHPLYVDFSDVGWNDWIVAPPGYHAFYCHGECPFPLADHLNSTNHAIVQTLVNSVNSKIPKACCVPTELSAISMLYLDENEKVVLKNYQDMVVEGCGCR

| IC50 [M], inhibition of 100 pM Activin A in A204/CAGAx12-Luc Smad2/3-luciferase bioassay (Activin A [1]) | IC50 [M], inhibition of 50 pM Activin B in A204/CAGAx12-Luc Smad2/3-luciferase bioassay (Activin B [2]) | IC50 [M], inhibition of 30 pM Activin AB in A204/CAGAx12-Luc Smad2/3-luciferase bioassay (Activin AB [3]) | IC50 [M], inhibition of 4 nM Activin AC in A204/CAGAx12-Luc Smad2/3-luciferase bioassay (Activin AC [4]) | 50 nM Ag Bound (RU) (Activin AB [5]) | Kd (Activin AB [5]) | koff (Activin AB [5]) | kon (Activin AB [5]) | t1/2 (Activin AB [5]) | 50 nM Ag Bound (RU) (Activin AB [6]) | Kd (Activin AB [6]) | koff (Activin AB [6]) | kon (Activin AB [6]) | t1/2 (Activin AB [6]) | 50 nM Ag Bound (RU) (Activin AC [7]) | Kd (Activin AC [7]) | koff (Activin AC [7]) | kon (Activin AC [7]) | t1/2 (Activin AC [7]) | 50 nM Ag Bound (RU) (Activin AC [8]) | further results | Binder |
| --- | --- | --- | --- | --- | --- | --- | --- | --- | --- | --- | --- | --- | --- | --- | --- | --- | --- | --- | --- | --- | --- |
| 2.8e-10 M | 5.2e-09 M | 4.3e-10 M | 7.5e-10 M | 15.5 RU | 0.177 nM | 0.000526 s⁻¹ | 2.97e+06 M⁻¹ s⁻¹ | 22 min | 17.7 RU | 0.314 nM | 0.00163 s⁻¹ | 5.2e+06 M⁻¹ s⁻¹ | 7.1 min | 11.8 RU | 0.442 nM | 0.000227 s⁻¹ | 513000 M⁻¹ s⁻¹ | 50.8 min | 13.3 RU | Kd (Activin AC [8]): 1.05 nM; koff (Activin AC [8]): 0.000755 s⁻¹; kon (Activin AC [8]): 718000 M⁻¹ s⁻¹; t1/2 (Activin AC [8]): 15.3 min | B1 |
| 2e-10 M | 1.3e-10 M | 1.4e-10 M | 1.3e-09 M | 28.2 RU | 0.0341 nM | 0.000261 s⁻¹ | 7.66e+06 M⁻¹ s⁻¹ | 44.2 min | 33.9 RU | 0.0443 nM | 0.000458 s⁻¹ | 1.03e+07 M⁻¹ s⁻¹ | 25.2 min | 30.1 RU | 2.24 nM | 0.00156 s⁻¹ | 698000 M⁻¹ s⁻¹ | 7.4 min | 32.6 RU | Kd (Activin AC [8]): 3.75 nM; koff (Activin AC [8]): 0.00331 s⁻¹; kon (Activin AC [8]): 881000 M⁻¹ s⁻¹; t1/2 (Activin AC [8]): 3.5 min; binding response (resonance units) for 200 nM ligand (Activin A [9]): 56.5 RU; binding response (resonance units) for 200 nM ligand (Activin B [10]): 60.1 RU; binding response (resonance units) for 200 nM ligand (Activin AB [11]): 54.3 RU; binding response (resonance units) for 200 nM ligand (Activin AC [12]): 55.6 RU; binding response (resonance units) for 200 nM ligand (hBMP2): 14.9 RU; binding response (resonance units) for 200 nM ligand (hBMP4): 19.3 RU; binding response (resonance units) for 200 nM ligand (hBMP6): 4 RU; binding response (resonance units) for 200 nM ligand (hBMP9): 11.7 RU; binding response (resonance units) for 200 nM ligand (GDF8): -0.5 RU; binding response (resonance units) for 200 nM ligand (GDF11): 0 RU | B2 |
